Six molecules from US20140271648A1 (Janssen / Centocor, published 2014) can be followed below.

What is called Kd is a measure of binding affinity in units of concentration. A lower Kd goes with a tighter complex.

Experiment [1] deals with T1, human IFNαC (human, UniProt P01566 24-189). Briefly: cell-based or functional assay.
The target of experiment [2] is T2, human IFNαF (human, UniProt P01568 24-189).
T2 chain: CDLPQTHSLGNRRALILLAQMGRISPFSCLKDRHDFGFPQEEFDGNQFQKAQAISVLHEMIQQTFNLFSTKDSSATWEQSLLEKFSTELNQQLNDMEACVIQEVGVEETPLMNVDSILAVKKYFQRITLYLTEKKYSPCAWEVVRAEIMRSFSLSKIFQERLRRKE
Briefly: cell-based or functional assay.

The target in experiment [3] is T3, human IFNαG (human, UniProt P01569 24-189). Briefly: cell-based or functional assay.
Experiment [4] has as its target T4, human IFNαH2 (human, UniProt P01570 24-189). Briefly: cell-based or functional assay.
The target of experiment [5] is T5, human IFNαJ1 (human, UniProt P01567 24-189). Briefly: cell-based or functional assay.
For experiment [6], the target named is T6, human IFNαK (human, UniProt P05013 24-189). Briefly: cell-based or functional assay.
Experiment [7] concerns the target T7, human IFNαWA (human, UniProt P05015 24-189). Briefly: cell-based or functional assay.
In experiment [8] the target is T8, human IFNω (human, UniProt P05000 24-195). Briefly: cell-based or functional assay.
Experiment [9] deals with T1, human IFNαC. Briefly: SPR (ProteOn); mAb captured on anti-human Fc, IFN as analyte.
Method: (§1) Binding affinities of the antibodies were performed using SPR technology with ProteOn (Bio-Rad Hercules, Calif.). Goat anti-human Fc antibodies (manufacture) were amine-coupled to GLC chips (Bio-Rad Hercules, Calif.) using standard NHS/EDC chemistry as manufacture recommended. The anti-IFN mAbs were then loaded on the antibody coupled chip for 2 minutes at the flow rate of 30 μl/min. […] The chips were generated with 100 mM phosphoric acid in each direction between running different antigens. Data analysis was performed using ProteOn manager (Bio-Rad Hercules, Calif.). The sensorgrams were grouped by mAbs. After applying alignment and reference correction (using either interspot or blank channel referencing), the SPR data were fit globally to Langmuir model for kinetic rate constants (KD=koff/kₒₙ, where KD=equilibrium dissociation constant, kₒₙ=association rate constant, and koff=dissociation rate constant).
For a further experiment, the target named is T9, human IFNαD (human, UniProt A0A087WWS6 25-190).
T9 construct: also called Alpha D (alpha 1); IFNα1
T9 chain: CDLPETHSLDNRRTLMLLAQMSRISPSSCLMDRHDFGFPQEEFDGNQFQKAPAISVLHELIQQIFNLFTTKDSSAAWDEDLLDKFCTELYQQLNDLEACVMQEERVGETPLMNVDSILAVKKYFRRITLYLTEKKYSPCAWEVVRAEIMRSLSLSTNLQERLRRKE
The description is as above.

In experiment [10] the target is T2, human IFNαF. The experiment is described as above.
Method: as §1
The target in experiment [11] is T3, human IFNαG. Described as above.
Method: as §1
Experiment [12] concerns the target T4, human IFNαH2. The description is as above.
Method: as §1
For experiment [13], the target named is T5, human IFNαJ1. The description is as above.
Method: as §1
In experiment [14] the target is T6, human IFNαK. Described as above.
Method: as §1
The target of experiment [15] is T7, human IFNαWA. The experiment is described as above.
Method: as §1
In experiment [16] the target is T8, human IFNω. The description is as above.
Method: as §1
For another experiment, the target named is T10, human IFNω T80E variant (human, UniProt P05000 24-195).
T10 construct: Expressed in HEK293F cells; used for the crystal structures; In the Fab357 crystal only residues R22-P39 and L118-L154 were seen (proteolytic cleavage during crystallization); also called IFN-omega (T80E)
Briefly: complex formed, purified by size exclusion and co-crystallized. For orientation: SEC sorts molecules by how far they enter the pores of the column.

A further experiment concerns the target T11, human IFNβ (human, UniProt P01574 22-187).
T11 construct: also called interferon-β
Briefly: SPR (ProteOn); mAb captured on anti-human Fc, IFN as analyte.

T4 sequence (P01570 24-189): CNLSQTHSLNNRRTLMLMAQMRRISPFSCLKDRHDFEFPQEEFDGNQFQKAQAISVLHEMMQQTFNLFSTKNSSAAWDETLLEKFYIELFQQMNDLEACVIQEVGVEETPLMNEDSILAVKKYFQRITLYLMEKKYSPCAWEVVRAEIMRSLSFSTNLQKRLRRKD
T3 sequence (P01569 24-189): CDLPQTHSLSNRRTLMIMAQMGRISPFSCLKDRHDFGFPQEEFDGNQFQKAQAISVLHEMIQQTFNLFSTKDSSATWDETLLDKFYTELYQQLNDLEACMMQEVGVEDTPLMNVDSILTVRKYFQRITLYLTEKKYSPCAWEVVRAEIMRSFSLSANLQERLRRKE
T1 sequence (P01566 24-189): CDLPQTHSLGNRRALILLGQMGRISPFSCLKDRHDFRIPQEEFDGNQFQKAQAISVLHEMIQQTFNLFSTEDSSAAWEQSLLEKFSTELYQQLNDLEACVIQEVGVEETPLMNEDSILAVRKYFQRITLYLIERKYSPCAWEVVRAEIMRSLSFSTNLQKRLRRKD
T8 sequence (P05000 24-195 limits assumed): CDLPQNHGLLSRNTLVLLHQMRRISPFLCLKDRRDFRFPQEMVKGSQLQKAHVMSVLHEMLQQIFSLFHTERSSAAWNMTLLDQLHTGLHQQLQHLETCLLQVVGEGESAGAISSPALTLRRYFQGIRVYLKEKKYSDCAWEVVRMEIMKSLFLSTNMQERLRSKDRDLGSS
T6 sequence (P05013 24-189): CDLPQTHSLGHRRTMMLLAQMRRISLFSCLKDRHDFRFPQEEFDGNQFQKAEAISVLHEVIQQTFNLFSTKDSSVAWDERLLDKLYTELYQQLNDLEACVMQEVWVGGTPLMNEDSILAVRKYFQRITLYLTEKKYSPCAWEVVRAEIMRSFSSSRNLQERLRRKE
T5 sequence (P01567 24-189): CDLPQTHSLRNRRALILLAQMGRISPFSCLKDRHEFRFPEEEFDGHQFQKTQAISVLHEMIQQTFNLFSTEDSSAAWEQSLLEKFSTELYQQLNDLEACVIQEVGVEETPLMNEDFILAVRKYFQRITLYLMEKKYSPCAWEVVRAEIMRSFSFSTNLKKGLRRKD
T10 sequence (P05000 24-195 T103E limits assumed): as the sequence (P05000 24-195 limits assumed) above, with T80E counted along it
T11 sequence (P01574 22-187 limits assumed): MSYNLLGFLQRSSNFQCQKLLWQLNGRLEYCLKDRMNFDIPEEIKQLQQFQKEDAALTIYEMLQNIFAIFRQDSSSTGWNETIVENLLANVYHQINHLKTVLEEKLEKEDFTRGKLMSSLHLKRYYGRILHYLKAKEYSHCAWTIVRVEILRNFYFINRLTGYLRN
Method for human IFNαD: as §1
Method for human IFNβ: as §1

B1: IFWM43 (antibody, V domains shown)
VH: QVQLVQSGAEVKKPGSSVKVSCKASGGTFSSYAISWVRQAPGQGLEWMGGIIPIFGTANYAQKFQGRVTITADESTSTAYMELSSLRSEDTAVYYCARDSWGSYYAALDYWGQGTLVTVSS
VL: not shown
notes: Fab from a pIX phage display library, converted to human IgG1 mAb; also called anti IFNα/ω mAb M43
Turning to B1, the “IC50, ISRE reporter gene assay” value is 14.9 nM with human IFNαC [1]; 3.7 nM in the experiment with human IFNαF [2]; 5.3 nM with human IFNαG [3]; 51 nM with human IFNαH2 [4]; 1 nM with human IFNαJ1 [5]; 10.4 nM with human IFNαK [6]. Besides, the figures for the “IC50, ISRE reporter gene assay” value with human IFNαWA [7] and with human IFNω [8] were 9.2 nM and 18.5 nM, respectively. Moreover, the Kd with human IFNαC [9] was 0.4 nM; with human IFNαF [10], 0.9 nM; with human IFNαG [11], 0.6 nM; with human IFNαH2 [12], 0.6 nM; with human IFNαJ1 [13], 0.4 nM; with human IFNαK [14], 0.3 nM. Moreover, the results for the Kd with human IFNαWA [15] and with human IFNω [16] were 0.6 nM and 0.3 nM, respectively. For the same molecule, in the experiment with human IFNαD, the binding result is “no binding (tested: antigen up to 100 nM)”.

B2: FabM43 (Fab, V domains shown)
VH: QVQLVQSGAEVKKPGSSVKVSCKASGGTFSSYAISWVRQAPGQGLEWMGGIIPIFGTANYAQKFQGRVTITADESTSTAYMELSSLRSEDTAVYYCARDSWGSYYAALDYWGQGTLVTVSS
VL: not shown
notes: His-tagged Fab, IgG1/κ isotype, expressed in HEK293F cells; also called Fab of IFWM43; His-tagged FabM43
For the molecule B2, the binding result in the experiment with human IFNω T80E variant was “binds”.

B3: IFWM88 (antibody, V domains shown)
VH: QVQLVQSGAEVKKPGSSVKVSCKASGGTFSSYAISWVRQAPGQGLEWMGGIIPIFGTANYAQKFQGRVTITADESTSTAYMELSSLRSEDTAVYYCARHLEYAFPDKFDYWGQGTLVTVSS
VL: not shown
notes: Fab from a pIX phage display library, converted to human IgG1 mAb
As to B3, the “IC50, ISRE reporter gene assay” value with human IFNαC [1] worked out at 136 nM; with human IFNαF [2], 24.6 nM; in the experiment with human IFNαG [3] it was 23.4 nM; with human IFNαJ1 [5], 21.9 nM. Also, the Kd turned out to be 3.2 nM in the experiment with human IFNαC [9]; 1 nM with human IFNαF [10]; 0.8 nM with human IFNαG [11]; 5.5 nM with human IFNαH2 [12]; 4.5 nM in the experiment with human IFNαJ1 [13]; 97.3 nM with human IFNαWA [15]. Also, the Kd with human IFNω [16] was found to be 53 nM. The binding result in the experiment with human IFNαD and with human IFNβ was “no binding (tested: antigen up to 100 nM)” each time.

B4: C2595 (antibody, V domains shown)
VH: EVQLQQSGGDLVKPGGSLKLSCAASGFTFSSYGMSWVRQTPDKRLDWVSIITSGGSYTYYPDSVKGRFTISRDNAKNTLYLQMSSLKSEDTAMYYCARHAEGGGNYDYAMDYWGQGTSVTVSS
VL: DIVMTQAAFSNPVTLGTSASISCRSSKSLLHSNGITYLYWYLQKPGQSPQLLIYQMSNLASGVPDRFSSSGSGIDFTLRISRVEAEDVGAYYCAQNLELPFTFGSGTKLEIK
On to B4, for which the “IC50, ISRE reporter gene assay” value with human IFNαC [1] stood at 1.5 nM; with human IFNαF [2], 2.6 nM; in the experiment with human IFNαG [3], 2.6 nM; in the experiment with human IFNαH2 [4], 20.3 nM; with human IFNαJ1 [5], 1.4 nM; in the experiment with human IFNω [8] it was 0.9 nM.

B5: Fab357 (Fab, V domains shown)
VH: EVQLQQSGGDLVKPGGSLKLSCAASGFTFSSYGMSWVRQTPDKRLDWVSIITSGGSYTYYPDSVKGRFTISRDNAKNTLYLQMSSLKSEDTAMYYCARHAEGGGNYDYAMDYWGQGTSVTVSS
VL: DIVMTQAAFSNPVTLGTSASISCRSSKSLLHSNGITYLYWYLQKPGQSPQLLIYQMSNLASGVPDRFSSSGSGIDFTLRISRVEAEDVGAYYCAQNLELPFTFGSGTKLEIK
notes: also called Fab of C2595
B5: the binding result with human IFNω T80E variant is “binds”.

B6: M3239 (antibody, human IgG1, V domains shown)
VH: EVQLQQSGGDLVKPGGSLKLSCAASGFTFSSYGMSWVRQTPDKRLDWVSIITSGGSYTYYPDSVKGRFTISRDNAKNTLYLQMSSLKSEDTAMYYCARHAEGGGNYDYAMDYWGQGTSVTVSS
VL: DIVMTQAAFSNPVTLGTSASISCRSSKSLLHSNGITYLYWYLQKPGQSPQLLIYQMSNLASGVPDRFSSSGSGIDFTLRISRVEAEDVGAYYCAQNLELPFTFGSGTKLEIK
Take B6: the Kd is 1.3 nM in the experiment with human IFNαC [9]; 15.1 nM with human IFNαF [10]; 10.3 nM with human IFNαG [11]; 61.6 nM with human IFNαH2 [12]; 4.3 nM with human IFNαJ1 [13]; 4.5 nM in the experiment with human IFNω [16]. For the same molecule, the binding result with human IFNαD, with human IFNαK [14], in the experiment with human IFNαWA [15] and in the experiment with human IFNβ was “no binding (tested: antigen up to 100 nM)” in each case.
